Reference: paper PMC5762779, “The peroxisomal AAA-ATPase Pex1/Pex6 unfolds substrates by processive threading” (Nature Communications, 2018)
Blank lines part the entries; values can stand above or below the binder they belong to.

Assays:
Details in all cases: both partners purified
[1] = target: T1, fluorescein-labeled Pex5 (Pex5-FAM) (S. cerevisiae, UniProt P35056 1-612, fluorescein-conjugated peptide GGGK-FAM joined by sortase at the LPETGG site at the C-terminus); assay: pull-down; 2 μM MBP-Pex15 1-327 on magnetic amylose resin with 350 nM Pex5-FAM, with or without 1 μM Pex1-WB2/Pex6-WB2 and 100 μM SKL peptide, 1 h, 4 °C, 60 mM HEPES pH 7.6, 150 mM NaCl, 150 mM KCl, 10% glycerol, 0.05% Tween-20, 10 mM MgCl2, 0.5 mM EDTA, 5 mM ATP; eluted with 20 mM maltose; Pex5 seen by its fluorescein
T1 construct: Pex5, S. cerevisiae W303 coding region, followed by a sortase site (LPETGG) upstream of the C-terminal 6xHis tag; Likely derived from FLAG-Pex5-His, so an N-terminal FLAG tag may be present; After sortase the C-terminus should read LPET-GGGK(FAM); source: E. coli BL21*, purified, sortase-labelled, Ni-NTA flow-through, Superdex 200 increase; not shown: His6, C-terminal, cleaved
T1 sequence (looked up): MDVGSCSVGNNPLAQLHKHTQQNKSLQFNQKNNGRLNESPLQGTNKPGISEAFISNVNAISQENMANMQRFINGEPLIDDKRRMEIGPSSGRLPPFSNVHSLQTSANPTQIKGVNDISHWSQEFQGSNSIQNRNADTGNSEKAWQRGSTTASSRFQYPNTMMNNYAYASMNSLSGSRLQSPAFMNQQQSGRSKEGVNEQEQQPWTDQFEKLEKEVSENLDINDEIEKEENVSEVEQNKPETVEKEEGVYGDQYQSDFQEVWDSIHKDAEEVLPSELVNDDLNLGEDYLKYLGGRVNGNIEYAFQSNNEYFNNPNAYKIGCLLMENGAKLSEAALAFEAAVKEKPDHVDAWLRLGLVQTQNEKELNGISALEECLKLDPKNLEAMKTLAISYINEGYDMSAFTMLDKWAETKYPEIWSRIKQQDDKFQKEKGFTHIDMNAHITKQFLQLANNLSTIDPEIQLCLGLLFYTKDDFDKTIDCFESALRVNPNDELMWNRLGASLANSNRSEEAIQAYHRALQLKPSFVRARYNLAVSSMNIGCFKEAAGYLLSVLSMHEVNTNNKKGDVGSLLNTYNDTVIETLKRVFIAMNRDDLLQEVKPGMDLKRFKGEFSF

[2] = target: T2, Pex1-FLAG/His-Pex6 hexamer, wild type (S. cerevisiae, UniProt P24004 1-1043; P33760 1-1030); assay: negative-stain EM reconstruction; 20 nM Pex1-FLAG/His-Pex6 mixed with 200 nM Pex15, 5 min on ice, 5 mM ATP; 3D reconstruction at 23.2 Å
T2 construct: Pex1, S. cerevisiae W303 coding region; Pex6, S. cerevisiae W303 coding region; also called Pex1/Pex6; wild-type Pex1/Pex6; source: E. coli BL21*, co-expressed, purified (Ni-NTA, anti-FLAG, Superose6); not shown: FLAG, C-terminal, kept; His6, N-terminal, kept; copies: 3 + 3
T2 sequence (P24004 whole entry, chain 1 of 2): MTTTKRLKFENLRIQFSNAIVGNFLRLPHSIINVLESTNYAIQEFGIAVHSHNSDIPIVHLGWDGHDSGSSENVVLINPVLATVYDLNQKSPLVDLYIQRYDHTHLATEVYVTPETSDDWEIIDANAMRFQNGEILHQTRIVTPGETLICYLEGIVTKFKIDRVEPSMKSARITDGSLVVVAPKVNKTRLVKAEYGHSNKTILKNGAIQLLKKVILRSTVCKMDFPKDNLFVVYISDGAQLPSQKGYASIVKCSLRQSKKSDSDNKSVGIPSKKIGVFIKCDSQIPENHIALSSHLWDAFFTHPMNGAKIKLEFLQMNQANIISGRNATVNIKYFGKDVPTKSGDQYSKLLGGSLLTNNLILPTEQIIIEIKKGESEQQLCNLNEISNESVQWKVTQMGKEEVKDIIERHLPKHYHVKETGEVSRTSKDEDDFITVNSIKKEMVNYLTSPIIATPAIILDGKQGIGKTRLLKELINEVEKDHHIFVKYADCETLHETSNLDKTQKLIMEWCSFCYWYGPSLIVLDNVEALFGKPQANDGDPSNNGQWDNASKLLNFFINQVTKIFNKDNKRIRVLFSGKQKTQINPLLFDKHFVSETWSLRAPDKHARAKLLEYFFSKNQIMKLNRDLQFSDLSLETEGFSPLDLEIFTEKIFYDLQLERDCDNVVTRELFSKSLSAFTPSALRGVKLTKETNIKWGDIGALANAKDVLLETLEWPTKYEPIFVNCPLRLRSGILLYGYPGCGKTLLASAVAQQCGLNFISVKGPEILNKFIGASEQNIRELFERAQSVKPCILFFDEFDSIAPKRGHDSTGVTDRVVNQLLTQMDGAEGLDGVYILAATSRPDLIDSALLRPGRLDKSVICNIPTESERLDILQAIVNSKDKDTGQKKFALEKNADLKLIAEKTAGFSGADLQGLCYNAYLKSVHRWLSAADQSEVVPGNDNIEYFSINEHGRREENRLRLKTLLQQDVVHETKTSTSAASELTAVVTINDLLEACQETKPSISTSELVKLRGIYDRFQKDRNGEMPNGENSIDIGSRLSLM
T2 sequence (P33760 whole entry, chain 2 of 2): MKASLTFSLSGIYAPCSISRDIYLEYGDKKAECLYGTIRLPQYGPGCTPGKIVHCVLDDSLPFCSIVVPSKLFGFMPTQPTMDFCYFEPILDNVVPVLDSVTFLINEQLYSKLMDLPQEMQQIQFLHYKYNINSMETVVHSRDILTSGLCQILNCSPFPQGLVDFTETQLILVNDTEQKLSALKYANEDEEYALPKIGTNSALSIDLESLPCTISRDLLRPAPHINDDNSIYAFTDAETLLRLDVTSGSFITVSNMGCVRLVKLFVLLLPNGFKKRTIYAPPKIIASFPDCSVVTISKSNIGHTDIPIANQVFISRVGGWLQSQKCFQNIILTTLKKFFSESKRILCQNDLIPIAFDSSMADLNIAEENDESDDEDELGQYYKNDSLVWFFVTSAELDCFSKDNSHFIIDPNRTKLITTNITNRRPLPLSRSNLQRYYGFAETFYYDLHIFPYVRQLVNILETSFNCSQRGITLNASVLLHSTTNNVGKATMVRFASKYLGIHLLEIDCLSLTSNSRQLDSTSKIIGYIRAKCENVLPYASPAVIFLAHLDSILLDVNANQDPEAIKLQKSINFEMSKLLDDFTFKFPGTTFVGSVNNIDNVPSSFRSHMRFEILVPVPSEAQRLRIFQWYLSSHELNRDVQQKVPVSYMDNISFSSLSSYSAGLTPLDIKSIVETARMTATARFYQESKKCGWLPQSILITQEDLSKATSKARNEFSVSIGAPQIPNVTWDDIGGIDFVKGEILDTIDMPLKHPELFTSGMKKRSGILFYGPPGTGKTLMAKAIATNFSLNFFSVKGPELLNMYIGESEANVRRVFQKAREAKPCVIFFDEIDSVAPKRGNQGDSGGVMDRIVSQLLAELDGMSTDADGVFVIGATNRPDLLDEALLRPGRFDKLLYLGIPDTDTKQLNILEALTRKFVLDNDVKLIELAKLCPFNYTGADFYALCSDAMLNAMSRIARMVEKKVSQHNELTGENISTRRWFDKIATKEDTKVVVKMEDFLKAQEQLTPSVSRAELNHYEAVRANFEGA

[3] = target: T3, Pex1-WB2/Pex6-WB2 mutant hexamer (Pex1-E798Q-Strep/His-Pex6-E832Q) (S. cerevisiae, UniProt P24004 1-1043; P33760 1-1030, E798Q | E832Q); assay: HDX-MS; 3 uM Pex15 1-309 and 100 nM Pex1-WB2/Pex6-WB2 hexamer in D2O buffer (60 mM HEPES pD 7.6, 50 mM NaCl, 50 mM KCl, 10% glycerol, 10 mM MgCl2, 0.5 mM EDTA, 5 mM ATP); 15 s deuteration, with and without saturating Pex15
T3 construct: Pex1, S. cerevisiae W303, Walker B D2 mutant; Pex6, S. cerevisiae W303, Walker B D2 mutant; also called Pex1-WB/Pex6-WB; ATPase-deficient Pex1/Pex6; source: E. coli BL21*, co-expressed, purified (Ni-NTA, Streptactin); copies: 3 + 3

[4] = target: T4, Pex1-FLAG/His-Pex6 hexamer, wild type (S. cerevisiae, UniProt P24004 1-1043; P33760 1-1030); assay: inhibition of ATPase activity (ATP/NADH coupled enzyme assay); apparent KD from the concentration-dependent inhibition of the ATPase activity of 5 nM Pex1/Pex6 by titrated Pex15; 5 mM ATP, 2 uM BSA; n = 3 technical replicates
T4 construct: Pex1, S. cerevisiae W303; Pex6, S. cerevisiae W303; Heterohexamer with alternating subunits; also called WT Pex1/Pex6; Pex1/Pex6; source: E. coli BL21*, co-expressed, purified (Ni-NTA, anti-FLAG, Superose6); copies: 3 + 3
T4 sequence (P24004 whole entry, chain 1 of 2): as the sequence (P24004 whole entry, chain 1 of 2) above
T4 sequence (P33760 whole entry, chain 2 of 2): as the sequence (P33760 whole entry, chain 2 of 2) above

[5] = target: T5, Pex1-FLAG/His-Pex6 (V245A, T246A) hexamer (S. cerevisiae, UniProt P24004 1-1043; P33760 1-1030, V245A | T246A); assay: as above
T5 construct: Pex1, S. cerevisiae W303; also called Pex1/Pex6-VT:AA; Pex6 VT:AA; source: E. coli BL21*, co-expressed, purified (Ni-NTA, anti-FLAG, Superose6); copies: 3 + 3

[6] = target: T4, Pex1-FLAG/His-Pex6 hexamer, wild type; assay: as above; remark: listed apart in the source

T3 sequence (P24004 whole entry E798Q, chain 1 of 2): as the sequence (P24004 whole entry, chain 1 of 2) above, with E798Q counted along it
T3 sequence (P33760 whole entry E832Q, chain 2 of 2): as the sequence (P33760 whole entry, chain 2 of 2) above, with E832Q counted along it
T5 sequence (P24004 whole entry, chain 1 of 2): as the sequence (P24004 whole entry, chain 1 of 2) above
T5 sequence (P33760 whole entry V245A/T246A, chain 2 of 2): as the sequence (P33760 whole entry, chain 2 of 2) above, with V245A, T246A counted along it

- binding result [1]: binds
B1: MBP-Pex15 1-327-FLAG-His (domain or fragment, S. cerevisiae, UniProt Q08215 1-327, looked up)
chain: MAASEIMNNLPMHSLDSSLRDLLNDDLFIESDESTKSVNDQRSEVFQECVNLFIKRDIKDCLEKMSEVGFIDITVFKSNPMILDLFVSACDIMPSFTKLGLTLQSEILNIFTLDTPQCIETRKIILGDLSKLLVINKFFRCCIKVIQFNLTDHTEQEEKTLELESIMSDFIFVYITKMRTTIDVVGLQELIEIFIFQVKVKLHHKKPSPNMYWALCKTLPKLSPTLKGLYLSKDVSIEDAILNSIDNKIQKDKAKSKGKQRGVKQKIHHFHEPMLHNSSEEQVKVEDAFNQRTSTDSRLQSTGTAPRKKNNDITVLAGSFWAVLKHH
notes: Pex15, S. cerevisiae W303, cytosolic domain residues 1-327; not shown: MBP, N-terminal, kept; FLAG, C-terminal, kept; His, C-terminal, kept

- stoichiometry N [2]: 3 Pex15 per Pex1/Pex6 hexamer
B2: Pex15 cytosolic domain (aa 1-327), as used for negative-stain EM (domain or fragment, S. cerevisiae, UniProt Q08215 1-327, looked up)
chain: B1 chain
notes: Pex15, S. cerevisiae W303, cytosolic domain residues 1-327; also called Pex15 cytosolic portion; source: E. coli BL21*, purified (Ni-NTA, Superdex 200); not shown: His, C-terminal, cleaved

- binding result [3]: binds
- Kd [4]: 0.58 ± 0.18 µM
- Kd [5]: 1.98 ± 0.58 µM
- Kd [6]: 0.58 µM
B3: Pex15 1-309 (cytosolic domain) (domain or fragment, S. cerevisiae, UniProt Q08215 1-309, looked up)
chain: MAASEIMNNLPMHSLDSSLRDLLNDDLFIESDESTKSVNDQRSEVFQECVNLFIKRDIKDCLEKMSEVGFIDITVFKSNPMILDLFVSACDIMPSFTKLGLTLQSEILNIFTLDTPQCIETRKIILGDLSKLLVINKFFRCCIKVIQFNLTDHTEQEEKTLELESIMSDFIFVYITKMRTTIDVVGLQELIEIFIFQVKVKLHHKKPSPNMYWALCKTLPKLSPTLKGLYLSKDVSIEDAILNSIDNKIQKDKAKSKGKQRGVKQKIHHFHEPMLHNSSEEQVKVEDAFNQRTSTDSRLQSTGTAPRKK
notes: likely here too; source: E. coli BL21*, purified (Ni-NTA, tag cleaved with PreScission protease, Superdex 200); not shown: His, C-terminal, cleaved
